Source: patent US20240084259A1, “STEM CELL-DERIVED MATURE CARDIOMYOCYTES AND CARDIOVASCULAR DISEASE MODEL USING SAME” (KOREA UNIVERSITY RESEARCH AND BUSINESS FOUNDATION, priority 2019, published 2024)

B1: FGF10: FGF10, maturation factor compared at 10 ng/ml (protein, UniProt O15520 38-208, looked up)
Fibroblast growth factor 10: QALGQDMVSPEATNSSSSSFSSPSSAGRHVRSYNHLQGDVRWRKLFSFTKYFLKIEKNGKVSGTKKENCPYSILEITSVEIGVVAVKAINSNYYLAMNKKGKLYGSKEFNNDCKLKERIEENGYNTYASFNWQHNGRQMYVALNGKGAPRRGQKTRRKNTSAHFLPMVVHS
B2: FGF4: fibroblast growth factor 4 (FGF4), maturation factor added to the differentiation medium (protein, UniProt P08620 31-206, looked up)
Fibroblast growth factor 4: APTAPNGTLEAELERRWESLVALSLARLPVAAQPKEAAVQSGAGDYLLGIKRLRRLYCNVGIGFHLQALPDGRIGGAHADTRDSLLELSPVERGVVSIFGVASRFFVAMSSKGKLYGSPFFTDECTFKEILLPNNYNAYESYKYPGMFIALSKNGKTKKGNRVSPTMKVTHFLPRL

How the values were obtained:
Format in all cases: cell-based
[1] = test system: human embryonic stem cells (BG01); assay: Polymerase chain reaction for cell lineage markers during differentiation into cardiomyocytes; conditions: 15th day, treated 5th to 15th day; FGFs 10 ng/ml, ascorbic acid 200 μg/ml; vs control group
Source text: (§1) In order to investigate the effect of FGF2 on differentiation by cardiomyocyte type, mature differentiation of cardiomyocytes, and differentiation of vascular smooth muscle cells, the expression of a cardiomyocyte marker (cTnT), mature cardiomyocyte marker (cTnI), ventricular cardiomyocyte marker (MLC2v), atrial cardiomyocyte markers (MLC2a, ANP), nodal cardiomyocyte markers (HCN4, TBX18), vascular smooth muscle cell markers (SMA, SM22), and vascular endothelial cell marker (CD31) in the control group and the group treated with 10 ng/ml FGF2 for 10 days from the 5th day to the 15th day during the differentiation of human embryonic stem cells (BG01) into cardiomyocytes was determined through polymerase chain reaction using primers for each cell lineage marker.
as §1, with “of FGF10” for “of FGF2”, “of the” for “of a”, “ng/ml FGF10” for “ng/ml FGF2”
as §1, with “of ascorbic acid” for “of FGF2”, “of the” for “of a”, “with 200 μg/ml ascorbic acid” for “with 10 ng/ml FGF2”
as §1, with “of FGF4” for “of FGF2”, “of the” for “of a”, “ng/ml FGF4” for “ng/ml FGF2”

[2] = test system: human embryonic stem cells (BG01 cell line); assay: Morphology and beating of cardiomyocytes differentiated from stem cells (optical microscope); conditions: FGFs 10 ng/ml, ascorbic acid 200 μg/ml; for day of differentiation on which beating cardiomyocytes were observed: control group 9th day; for cell morphology: treatment from 5th to 15th day of differentiation, vs control group
Description: In order to increase the differentiation efficiency of stem cells into cardiomyocytes and to improve differentiation by cardiomyocyte type and mature differentiation, conditions for monolayer differentiation of human embryonic stem cells (BG01 cell line) into cardiomyocytes were established.
An E8 culture medium (STEMCELL Technologies) containing a 2 μM ROCK inhibitor (thiazovivin) was added to a 6-well culture plate coated with Matrigel, and embryonic stem cells dissociated into single cells using Accutase were seeded at 2.5×10^5 cells per well. Culture was carried out for about 3 days, and the E8 culture medium was exchanged until confluence of the 6-well culture plate with the cells. When confluence of the 6-well plate with the human embryonic stem cells was achieved, CHIR99021 (Sigma-Aldrich) as a GSK-3 inhibitor was added at a concentration of 6 μM to a CDM3 culture medium (containing RPMI 1640, serum albumin and ascorbic acid as three chemically verified components, P. W. Burridge et al., Nature Methods 11:855, 2014), followed by culture for 24 hours. Then, on the 2nd day of differentiation, 5 μM IWP2 (Inhibitor of Wnt Production 2) was added to the medium, followed by culture for 2 days. After addition of 10 ng/ml FGF2, 10 ng/ml FGF4, 10 ng/ml FGF10, 200 μg/ml ascorbic acid, and 10 ng/ml FGF4+200 μg/ml ascorbic acid on the 5th day of differentiation, culture was carried out until the 15th day of differentiation while the culture medium was exchanged every 48 hours with an RPMI+B27(-Insulin) medium (FIG. 1a).

[3] = test system: human embryonic stem cells (BG01); assay: Immunofluorescence staining of cardiomyocyte type markers; conditions: 10 ng/ml FGF4 or 10 ng/ml FGF4+200 μg/ml ascorbic acid
Description: In order to investigate the effect of treatment with FGF4 alone and co-treatment with FGF4+ascorbic acid on type-specific differentiation and mature differentiation of human embryonic stem cells into cardiomyocytes, differences in expression of the cardiomyocyte marker (cTnT), ventricular cardiomyocyte marker (MLC2v), and atrial cardiomyocyte marker (MLC2a) after treatment with 10 ng/ml FGF4 or co-treatment with 10 ng/ml FGF4+200 μg/ml ascorbic acid for 10 days from the 5th day to the 15th day during the differentiation of human embryonic stem cells (BG01) into cardiomyocytes was confirmed through immunofluorescence staining (FIG. 7).

[4] = test system: human embryonic stem cells; assay: FGF4 concentration series, polymerase chain reaction for MLC2v, MLC2a, TBX18, SMA
Description: In order to determine the appropriate concentration of FGF4 on the increase in gene expression of the ventricular cardiomyocyte marker (MLC2v), atrial cardiomyocyte marker (MLC2a), nodal cardiomyocyte marker (TBX18), and vascular smooth muscle cell marker (SMA) from human embryonic stem cells, after treatment with FGF4 at various concentrations for 10 days from the 5th day to the 15th day of differentiation, polymerase chain reaction was performed using primers for MLC2v, MLC2a, TBX18, and SMA.

| Molecule | expression of atrial cardiomyocyte marker ANP (mRNA) [1] | expression of atrial cardiomyocyte marker MLC2a (mRNA) [1] | expression of mature cardiomyocyte marker cTnI (mRNA) [1] | expression of nodal cardiomyocyte marker HCN4 (mRNA) [1] | expression of nodal cardiomyocyte marker TBX18 (mRNA) [1] | expression of vascular smooth muscle cell marker SM22 (mRNA) [1] | expression of vascular smooth muscle cell marker SMA (mRNA) [1] | expression of ventricular cardiomyocyte marker MLC2v (mRNA) [1] | day of differentiation on which beating cardiomyocytes were observed [2] [days] | cell morphology [2] | also measured |
| --- | --- | --- | --- | --- | --- | --- | --- | --- | --- | --- | --- |
| O=C1O[C@H]([C@@H](O)CO)C(O)=C1O [ascorbic acid, reference compound] | significantly increased | significantly increased | significantly increased | significantly decreased | significantly decreased | significantly decreased | significantly decreased | significantly increased | 9 | relatively flat morphology | expression of cardiomyocyte marker cTnT (mRNA) [1]: significantly increased |
| FGF2: FGF2, maturation factor compared at 10 ng/ml | significantly increased |  | no effect | significantly decreased | significantly decreased | significantly decreased | significantly decreased | no effect | 9 | morphological changes similar to the control group | expression of vascular endothelial cell marker CD31 (mRNA) [1]: significantly increased |
| B1 |  | significantly increased | no effect | significantly increased | significantly increased |  | significantly increased | no effect | 9 | morphological changes similar to the control group |  |
| B2 | significantly increased | significantly increased | significantly increased | significantly decreased | significantly decreased | significantly decreased | significantly decreased | significantly increased | 9 | formed in a thickened structure | morphology of cardiomyocytes (immunostaining) ([3]; 5th to 15th day, compared to control group): agglomerated and thickened morphology; atrial cardiomyocyte marker MLC2a (immunostaining) ([3]; control group also positive): positive reaction; expression of ventricular cardiomyocyte marker MLC2v (immunostaining) ([3]; in the thickened cells, 5th to 15th day): increased; gene expression of atrial cardiomyocyte type marker MLC2a ([4]; 5 ng/ml FGF4, 5th to 15th day): started to increase; gene expression of nodal cardiomyocyte marker TBX18 ([4]; 5 ng/ml FGF4, 5th to 15th day): significantly decreased; gene expression of vascular smooth muscle cell marker SMA ([4]; 5 ng/ml FGF4, 5th to 15th day): significantly decrease; gene expression of ventricular cardiomyocyte type marker MLC2v ([4]; 5 ng/ml FGF4, 5th to 15th day): started to increase; gene expression of atrial cardiomyocyte type marker MLC2a ([4]; 10 ng/ml FGF4, 5th to 15th day): highest; gene expression of nodal cardiomyocyte marker TBX18 ([4]; 10 ng/ml FGF4, 5th to 15th day): significantly decreased; gene expression of vascular smooth muscle cell marker SMA ([4]; 10 ng/ml FGF4, 5th to 15th day): significantly decrease; gene expression of ventricular cardiomyocyte type marker MLC2v ([4]; 10 ng/ml FGF4, 5th to 15th day): highest; gene expression of atrial cardiomyocyte type marker MLC2a ([4]; 25 ng/ml FGF4, 5th to 15th day): highest; gene expression of nodal cardiomyocyte marker TBX18 ([4]; 25 ng/ml FGF4, 5th to 15th day): significantly decreased; gene expression of vascular smooth muscle cell marker SMA ([4]; 25 ng/ml FGF4, 5th to 15th day): significantly decrease; gene expression of ventricular cardiomyocyte type marker MLC2v ([4]; 25 ng/ml FGF4, 5th to 15th day): highest; gene expression of atrial cardiomyocyte type marker MLC2a ([4]; 50 ng/ml FGF4, 5th to 15th day): observed to increase; gene expression of ventricular cardiomyocyte type marker MLC2v ([4]; 50 ng/ml FGF4, 5th to 15th day): observed to increase; gene expression of nodal cardiomyocyte marker TBX18 ([4]; 100 ng/ml FGF4, 5th to 15th day): significantly decreased |
